In patent publication US20260234232A1 (QUAERITE BIOPHARM RESEARCH BEIJING, published 2026):
Like-named read-outs stand apart in the source and are kept apart here.

How the values were obtained:
human VEGFA165 [1] = target: T1, human VEGFA165 (human, UniProt P15692-4 27-191); test: ELISA, coated human VEGFA165, anti-His detection
T1 construct: Bought protein from two suppliers, treated as one molecule; the supplier is named under assay; also called antigen VEGFA
Protocol: (§1) Antigen human VEGFA165 (label-free, purchased from Sino Biological, Cat. No.: HPLC-10008-HNAH, hereinafter referred to as VEGFA) was diluted with ELISA coating buffer to a final concentration of 0.3 μg/mL and added to a microplate at 100 μL/well for coating at 4° C. overnight. […] The solution used for antibody dilution was PBS containing 0.1% Tween-20 (pH 7.4), i.e., PBST. After being incubated at 37° C. for 1 h, the microplate was washed 3 times with PBST, and a dilution of His-Tag murine monoclonal antibody (purchased from Proteintech, Cat. No.: 66005-1-Ig) was added. The plate was further incubated at 37° C. for 1 h and washed again. Subsequently, a dilution of HRP-labeled goat anti-mouse IgG antibody (HRP-conjugated Affinipure Goat Anti-Mouse IgG (H+L), purchased from Proteintech, Cat. No.: SA00001-1) was added, and the plate was incubated at room temperature for 45 min. After the plate was washed, 100 μL of TMB (purchased from Tiangen Biotech, Cat. No.: PA107-01) was added to each well for color development at 37° C. for 15 min, followed by the addition of 50 μL of stopping solution. The absorbance at 450 nm (OD450) was measured using a microplate reader.
The experimental procedure was the same as that described in “2.

human VEGFA165 [2] = target: T1, human VEGFA165; test: SPR Biacore 8K, VEGFA165 on CM5, nanobody analyte, 1:1 fit
Protocol: Using the Biacore 8K instrument (Cytiva), the antigen VEGFA165 (label-free, purchased from Sino Biological, Cat. No.: HPLC-10008-HNAH) as the ligand was coupled onto a CM5 chip through amino-coupling reagents (EDC and NHS), with the coupling level being about 400 RU. The mobile phase buffer was HBS-EP (0.01 M HEPES pH 7.4, 0.15 M NaCl, 3 mM EDTA, 0.005% v/v Tween 20) during the experiment. […] In the kinetic analysis, the binding time between the antigen and the antibody was 240 s, the dissociation time was 1500 s, and the flow rate was 30 μL/min. In a multi-cycle mode, the chip was regenerated with 100 mM hydrochloric acid.

human VEGFA165 [3] = target: T1, human VEGFA165; test: ELISA, coated human VEGFA165, anti-His detection; remark: listed apart in the source
Protocol: as §1

human VEGFA165 [4] = target: T1, human VEGFA165; test: competitive ELISA, coated VEGFA, competitor VEGFR2-ECD-Fc 1 nM
Protocol: Antigen VEGFA was diluted with ELISA coating buffer (final concentration of […]) and added to a 96-well microplate at 100 μL/well for coating at 4° C. overnight. […] The plate was incubated at 37° C. for 1 h and washed 3 times with PBST. Subsequently, a dilution of HRP-labeled goat anti-human IgG antibody (HRP-conjugated Goat Anti-Human IgG, purchased from Proteintech, Cat. No.: A21050) was added, and the plate was further incubated at room temperature for 45 min. After the plate was washed, 100 μL of TMB (purchased from Tiangen Biotech, Cat. No.: PA107-01) was added to each well for color development at 37° C. for 15 min, followed by the addition of 50 μL of stopping solution. The absorbance at 450 nm (OD450) was measured using a microplate reader.

human VEGFA165 [5] = target: T1, human VEGFA165; test: as above; remark: listed apart in the source

T1 sequence (P15692 other isoform, or with tags, fused parts or gaps limits assumed): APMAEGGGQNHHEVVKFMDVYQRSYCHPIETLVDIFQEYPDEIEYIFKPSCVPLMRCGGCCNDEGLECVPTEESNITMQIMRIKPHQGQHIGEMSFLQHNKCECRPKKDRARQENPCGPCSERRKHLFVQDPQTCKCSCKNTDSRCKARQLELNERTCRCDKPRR

EC50 (human VEGFA165 [1]) [pM]	EC50 (human VEGFA165 [3]) [pM]	IC50 (human VEGFA165 [4]) [pM]	IC50 (human VEGFA165 [5]) [pM]	Maximum inhibition rate (%) (human VEGFA165 [5])	Binder	further results
520	–	–	–	–	V1 (VHH, Monovalent nanobody; tag not described here, the ELISA detects a His tag) VHH: QLQLVESGGGSVQPGGSLRLSCEVSGRTFSSYTMGWFRQAPGKEREFVVAISKGGYKYDSVSLEARFTISKDNTKNTVYLQMNSLKPEDTAVYYCAATRAYGSSRLRLADTYEYWGQGTQVTVSS	–
310	–	–	–	–	V43 (VHH, Monovalent nanobody; tag not described here, the ELISA detects a His tag) VHH: QLQLVESGGGSVQPGGSLRLSCEVSGRTFTSYTMGWFRQAPGKEREFVVAISKGGYKYDSVSLEARFTISKDNTKNTVYLQMNSLKPEDTAVYYCAGTRAYGSSRLRLANTYEYWGQGTQVTVSS	Kd (human VEGFA165 [2]): 116 pM; koff (human VEGFA165 [2]): 8.63e-05 s⁻¹; kon (human VEGFA165 [2]): 743000 M⁻¹ s⁻¹
770	–	–	–	–	V31 (VHH, Monovalent nanobody; tag not described here, the ELISA detects a His tag) VHH: QLQLVESGGGSVQPGGSLRLSCEVSGRTFASYTMGWFRQAPGKEREFVVAISKGGYKYDAVSLEARFTISKDNTKNTVYLQMNSLKPEDTAVYYCAGTRAYGSSRLRLAKTYEYWGQGTQVTVSS	–
–	270	1970	–	–	2V41-9GS (VHH, Tandem bivalent nanobody) QLQLVESGGGSVQPGGSLRLSCEVSGRTFSSYTMGWFRQAPGKEREFVVAISKGGYKYDSVSLEARFTISKDNTKNTVYLQMNSLKPEDTAVYYCAGTRAYGSSRLRLAKTYEYWGQGTQVTVSSGGGGSGGGSQLQLVESGGGSVQPGGSLRLSCEVSGRTFSSYTMGWFRQAPGKEREFVVAISKGGYKYDSVSLEARFTISKDNTKNTVYLQMNSLKPEDTAVYYCAGTRAYGSSRLRLAKTYEYWGQGTQVTVSS	–
–	300	3000	–	–	2V36-9GS (VHH, Tandem bivalent nanobody) QLQLVESGGGSVQPGGSLRLSCEVSGRTFASYTMGWFRQAPGKEREFVVAISKGGYKYDSVSLEARFTISKDNTKNTVYLQMNSLKPEDTAVYYCAGTRAYGSSRLRLADTYEYWGQGTQVTVSSGGGGSGGGSQLQLVESGGGSVQPGGSLRLSCEVSGRTFASYTMGWFRQAPGKEREFVVAISKGGYKYDSVSLEARFTISKDNTKNTVYLQMNSLKPEDTAVYYCAGTRAYGSSRLRLADTYEYWGQGTQVTVSS	–
310	310	–	–	–	2V31-9GS (VHH, Tandem bivalent nanobody) QLQLVESGGGSVQPGGSLRLSCEVSGRTFASYTMGWFRQAPGKEREFVVAISKGGYKYDAVSLEARFTISKDNTKNTVYLQMNSLKPEDTAVYYCAGTRAYGSSRLRLAKTYEYWGQGTQVTVSSGGGGSGGGSQLQLVESGGGSVQPGGSLRLSCEVSGRTFASYTMGWFRQAPGKEREFVVAISKGGYKYDAVSLEARFTISKDNTKNTVYLQMNSLKPEDTAVYYCAGTRAYGSSRLRLAKTYEYWGQGTQVTVSS	–
–	410	–	3220	91.2	V15-V30 (bispecific antibody) QLQLVESGGGSVQPGGSLRLSCEVSGRTFASYTMGWFRQAPGKEREFVVAISKGGYKYDSVSLEARFTISKDNTKNTVYLQMNSLKPEDTAVYYCAGTRAYGSSRLRLAETYEYWGQGTQVTVSSGGGGSGGGSQLQLVESGGGSVQPGGSLRLSCEVSGRTFSSYTMGWFRQAPGKGREFVVAISKGGYKYDAVSLEARFTISKDNTKNTVYLQMNSLKPEDTAVYYCAATRAYGSSRLRLAKTYEYWGQGTQVTVSS	–
–	310	1770	–	–	2V29-9GS (VHH, Tandem bivalent nanobody) QLQLVESGGGSVQPGGSLRLSCEVSGRTFSSYTMGWFRQAPGKEREFVVAISKGGYKYDSVSLEARFTISKDNTKNTVYLQMNSLKPEDTAVYYCAGTRAYGSSRLRLANTYEYWGQGTQVTVSSGGGGSGGGSQLQLVESGGGSVQPGGSLRLSCEVSGRTFSSYTMGWFRQAPGKEREFVVAISKGGYKYDSVSLEARFTISKDNTKNTVYLQMNSLKPEDTAVYYCAGTRAYGSSRLRLANTYEYWGQGTQVTVSS	–
–	310	–	2840	91.1	V1-V30 (bispecific antibody) QLQLVESGGGSVQPGGSLRLSCEVSGRTFSSYTMGWFRQAPGKEREFVVAISKGGYKYDSVSLEARFTISKDNTKNTVYLQMNSLKPEDTAVYYCAATRAYGSSRLRLADTYEYWGQGTQVTVSSGGGGSGGGSQLQLVESGGGSVQPGGSLRLSCEVSGRTFSSYTMGWFRQAPGKGREFVVAISKGGYKYDAVSLEARFTISKDNTKNTVYLQMNSLKPEDTAVYYCAATRAYGSSRLRLAKTYEYWGQGTQVTVSS	–
–	320	3480	–	–	2V33-9GS (VHH, Tandem bivalent nanobody) QLQLVESGGGSVQPGGSLRLSCEVSGRTFSSYTMGWFRQAPGKEREFVVAISKGGYKYDSVSLEARFTISKDNTKNTVYLQMNSLKPEDTAVYYCAATRAYGSSRLRLAKTYEYWGQGTQVTVSSGGGGSGGGSQLQLVESGGGSVQPGGSLRLSCEVSGRTFSSYTMGWFRQAPGKEREFVVAISKGGYKYDSVSLEARFTISKDNTKNTVYLQMNSLKPEDTAVYYCAATRAYGSSRLRLAKTYEYWGQGTQVTVSS	–
–	250	1410	–	–	2V30-9GS (VHH, Tandem bivalent nanobody) QLQLVESGGGSVQPGGSLRLSCEVSGRTFSSYTMGWFRQAPGKGREFVVAISKGGYKYDAVSLEARFTISKDNTKNTVYLQMNSLKPEDTAVYYCAATRAYGSSRLRLAKTYEYWGQGTQVTVSSGGGGSGGGSQLQLVESGGGSVQPGGSLRLSCEVSGRTFSSYTMGWFRQAPGKGREFVVAISKGGYKYDAVSLEARFTISKDNTKNTVYLQMNSLKPEDTAVYYCAATRAYGSSRLRLAKTYEYWGQGTQVTVSS	Kd (human VEGFA165 [2]): 22.2 pM; koff (human VEGFA165 [2]): 9.29e-05 s⁻¹; kon (human VEGFA165 [2]): 4.18e+06 M⁻¹ s⁻¹
170	170	–	–	–	2V43-9GS (VHH, Tandem bivalent nanobody) QLQLVESGGGSVQPGGSLRLSCEVSGRTFTSYTMGWFRQAPGKEREFVVAISKGGYKYDSVSLEARFTISKDNTKNTVYLQMNSLKPEDTAVYYCAGTRAYGSSRLRLANTYEYWGQGTQVTVSSGGGGSGGGSQLQLVESGGGSVQPGGSLRLSCEVSGRTFTSYTMGWFRQAPGKEREFVVAISKGGYKYDSVSLEARFTISKDNTKNTVYLQMNSLKPEDTAVYYCAGTRAYGSSRLRLANTYEYWGQGTQVTVSS	–
–	310	–	3320	89.8	V30-V40 (bispecific antibody) QLQLVESGGGSVQPGGSLRLSCEVSGRTFSSYTMGWFRQAPGKGREFVVAISKGGYKYDAVSLEARFTISKDNTKNTVYLQMNSLKPEDTAVYYCAATRAYGSSRLRLAKTYEYWGQGTQVTVSSGGGGSGGGSQLQLVESGGGSVQPGGSLRLSCEVSGRTFTSYTMGWFRQAPGKEREFVVAISKGGYKYNAVSLEARFTISKDNTKNTVYLQMNSLKPEDTAVYYCAATRAYGSSRLRLAKTYEYWGQGTQVTVSS	–
–	260	–	4060	90.1	V15-V40 (bispecific antibody) QLQLVESGGGSVQPGGSLRLSCEVSGRTFASYTMGWFRQAPGKEREFVVAISKGGYKYDSVSLEARFTISKDNTKNTVYLQMNSLKPEDTAVYYCAGTRAYGSSRLRLAETYEYWGQGTQVTVSSGGGGSGGGSQLQLVESGGGSVQPGGSLRLSCEVSGRTFTSYTMGWFRQAPGKEREFVVAISKGGYKYNAVSLEARFTISKDNTKNTVYLQMNSLKPEDTAVYYCAATRAYGSSRLRLAKTYEYWGQGTQVTVSS	–
–	420	–	3740	88.5	V1-V40 (bispecific antibody) QLQLVESGGGSVQPGGSLRLSCEVSGRTFSSYTMGWFRQAPGKEREFVVAISKGGYKYDSVSLEARFTISKDNTKNTVYLQMNSLKPEDTAVYYCAATRAYGSSRLRLADTYEYWGQGTQVTVSSGGGGSGGGSQLQLVESGGGSVQPGGSLRLSCEVSGRTFTSYTMGWFRQAPGKEREFVVAISKGGYKYNAVSLEARFTISKDNTKNTVYLQMNSLKPEDTAVYYCAATRAYGSSRLRLAKTYEYWGQGTQVTVSS	–
